# From paper doi:10.1101/2021.06.01.446590
# Tests used:
# [1] = biological target: human parkin, full-length (human) (UniProt O60260); test: ITC
# parkin/pUb = parkin/pUb (UniProt O60260); test: ITC
# parkin/pUb, sequence (O60260 whole entry, chain 1 of 2): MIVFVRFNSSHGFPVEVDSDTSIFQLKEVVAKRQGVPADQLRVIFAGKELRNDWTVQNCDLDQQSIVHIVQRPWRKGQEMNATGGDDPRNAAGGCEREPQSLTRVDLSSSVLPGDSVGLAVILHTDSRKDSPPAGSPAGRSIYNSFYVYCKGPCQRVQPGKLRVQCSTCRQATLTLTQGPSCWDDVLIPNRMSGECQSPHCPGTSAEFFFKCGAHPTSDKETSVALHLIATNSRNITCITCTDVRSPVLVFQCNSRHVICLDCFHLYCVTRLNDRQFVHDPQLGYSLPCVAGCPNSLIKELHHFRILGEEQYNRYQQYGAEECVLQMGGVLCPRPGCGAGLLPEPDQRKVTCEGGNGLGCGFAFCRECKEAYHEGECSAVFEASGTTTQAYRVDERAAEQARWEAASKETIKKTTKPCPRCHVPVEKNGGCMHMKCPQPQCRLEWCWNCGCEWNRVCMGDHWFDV
# parkin/pUb, sequence (P0CG63 1-76, chain 2 of 2, further chain): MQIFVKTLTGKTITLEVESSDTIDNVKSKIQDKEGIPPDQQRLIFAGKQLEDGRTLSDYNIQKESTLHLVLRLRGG
# human parkin, full-length (human), sequence (O60260 whole entry): as the sequence (O60260 whole entry, chain 1 of 2) above
# UbcH7~Ub, sequence (P68036 whole entry): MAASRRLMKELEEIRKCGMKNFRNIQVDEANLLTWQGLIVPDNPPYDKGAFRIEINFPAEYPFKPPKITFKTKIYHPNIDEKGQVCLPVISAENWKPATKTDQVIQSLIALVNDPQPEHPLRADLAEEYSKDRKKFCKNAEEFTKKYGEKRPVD
# UbcH7~Ub, sequence (P0CG63 1-76): as the sequence (P0CG63 1-76, chain 2 of 2, further chain) above
Substance,Kd [1] [nM],Kd (parkin/pUb) [µM]
mG2^T-pUb (mG2^T-Ub phosphorylated at S65 of Ub by PINK1) (from UniProt Q8IXI2 402-582; P0CG63 1-76),894,
CISD1-pUb (CISD1-Ub phosphorylated at S65 of Ub by PINK1) (from UniProt Q9NZ45 32-108; P0CG63 1-76),428,
UbcH7~Ub (from UniProt P68036 1-154; P0CG63 1-76) (complex),,40
